± gives the uncertainty stated by the source.
Assay: self-splicing fitness, log relative to wild type (ln ratio); higher = more splicing; Tetrahymena group I intron in knt gene, E. coli kanamycin selection, DiMSum; sequences stand for … in CUCUCU…GGAGGGAAAAGUUAUCAGGCAUGCACCUGGUAGCUAGUCUUUAAACCAAUAGAUUGCAUCGGUUUAAAAGGCAAGACCGUCAAAUUGCGGGAAAGGGGUCAACAGCCGUUCAGUACCAAGUCUCAGGGGAAACUUUGAGAUGGCCUUGCAAAGGGUAUGGUAAUAAGCUGACGGACAUGGUCCUAACCACGCAGCCAAGUCCUAAGUCAACAGAUCUUCUGUUGAUAUGGAUGCAGUUCACAGACUAAAUGUCGGUCGGGGAAGAUGUAUUCUUCUCAUAAGAUAUAGUCGGACCUCUCCUUAAUGGGAGCUAGCGGAUGAAGUGAUGCAACACUGGAGCCGCUGGGAACUAAUUUGUAUGCGAAAGUAUAUUGAUUAGUUUUGGAGUACUCGUGGUCG
Method in brief: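 Pooled colonies went to amplicon sequencing on an Illumina HiSeq 2500 after six replicate transformations. The plates were LB agar with 100 μg/mL carbenicillin, 50 μM IPTG and 0.2% rhamnose, with or without 25 μg/mL kanamycin, incubated overnight at 37°C or 30°C. The E. coli BL21(DE3) library had all eight P1ex-region intron nucleotides randomised, the intron placed in the knt kanamycin-resistance gene on pET-22b(+). DiMSum fitness is the error-weighted combination of replicate fold changes, kanamycin against none, normalised to wild type.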

| Sequence | self-splicing fitness (ln) (30 °C) | self-splicing fitness (ln) (37 °C) |
| --- | --- | --- |
| CGGUAGCAAUAUUACGGAGG | -2.24 ± 0.087 | -0.94 ± 0.09 |
| CGGUAGCAAUAUUACGGAUC | -4.27 ± 0.33 | -1.68 ± 0.23 |
| CGGUAGCAAUAUUACGGCAC | -2.11 ± 0.26 | -1.99 ± 0.36 |
| CGGUAGCAAUAUUACGGUAA | -2.99 ± 0.29 | -3.12 ± 0.3 |
| CGGUAGCAAUAUUACGUGGG | -3.79 ± 0.17 | -3.11 ± 0.14 |
| CGGUAGCAAUAUUACGUGUG | -0.17 ± 0.062 | 0.0947 ± 0.09 |
| CGGUAGCAAUAUUACGUUGG | -1.26 ± 0.091 | -0.39 ± 0.084 |
| CGGUAGCAAUAUUACGUUUA | -3.46 ± 0.2 | -2.03 ± 0.13 |
| CGGUAGCAAUAUUACGUUUU | -3.83 ± 0.26 | -2.41 ± 0.19 |
| CGUAAGCAAUAUUACGAAAC | -2.84 ± 0.32 |  |
| CGUAAGCAAUAUUACGAACC | -0.935 ± 0.24 | -1.46 ± 0.24 |
| CGUAAGCAAUAUUACGACUC | -3.64 ± 0.3 | -0.95 ± 0.17 |
| CGUAAGCAAUAUUACGAGUA | -4.09 ± 0.39 | -1.93 ± 0.21 |
| CGUAAGCAAUAUUACGAUUU | -2.66 ± 0.14 | -1.58 ± 0.12 |
| CGUAAGCAAUAUUACGCAAG | -1.99 ± 0.13 | -1.01 ± 0.13 |
| CGUAAGCAAUAUUACGCCAU | -3.78 ± 0.24 | -2.7 ± 0.23 |
| CGUAAGCAAUAUUACGCCCA | -1.83 ± 0.19 | -0.135 ± 0.24 |
| CGUAAGCAAUAUUACGCCCU | -1.4 ± 0.16 | -0.426 ± 0.16 |
| CGUAAGCAAUAUUACGCCUC | -4.31 ± 0.47 | -1.44 ± 0.44 |
| CGUAAGCAAUAUUACGCUUA | -3.67 ± 0.37 | -2.91 ± 0.23 |
| CGUAAGCAAUAUUACGGAAU | -3.8 ± 0.43 | -1.85 ± 0.22 |
| CGUAAGCAAUAUUACGGAGU | -3.13 ± 0.17 | -2.89 ± 0.19 |
| CGUAAGCAAUAUUACGGCAU | -3.27 ± 0.27 | -2.37 ± 0.15 |
| CGUAAGCAAUAUUACGGUCC | -2.31 ± 0.18 | -2.18 ± 0.24 |
| CGUAAGCAAUAUUACGGUGA | -3.29 ± 0.17 | -3.18 ± 0.22 |
| CGUAAGCAAUAUUACGGUGC | -2.65 ± 0.15 | -3.7 ± 0.31 |

| Sequence | self-splicing fitness (ln) (30 °C) | self-splicing fitness (ln) (37 °C) |
| --- | --- | --- |
| CGUCAGCAAUAUUACGAAAG | -0.9 ± 0.073 | 0.129 ± 0.096 |
| CGUCAGCAAUAUUACGAAUU | -2.82 ± 0.2 | -0.915 ± 0.14 |
| CGUCAGCAAUAUUACGACGA | -1.34 ± 0.2 | -1.2 ± 0.21 |
| CGUCAGCAAUAUUACGAGAA | -2.97 ± 0.38 | -2.09 ± 0.29 |
| CGUCAGCAAUAUUACGAGCU | -3.17 ± 0.13 | -1.45 ± 0.13 |
| CGUCAGCAAUAUUACGAUGG | -1.27 ± 0.054 | -0.0354 ± 0.084 |
| CGUCAGCAAUAUUACGCCAA | -3.6 ± 0.3 | -1.73 ± 0.18 |
| CGUCAGCAAUAUUACGCUAG | -0.963 ± 0.098 | -0.795 ± 0.15 |
| CGUCAGCAAUAUUACGCUGG | -2.6 ± 0.3 | -2.14 ± 0.34 |
| CGUCAGCAAUAUUACGGAGA | -3.44 ± 0.29 | -2.76 ± 0.27 |
| CGUCAGCAAUAUUACGGGGC | -2.73 ± 0.2 | -3.05 ± 0.32 |
| CGUCAGCAAUAUUACGGUGC | -2.31 ± 0.11 | -3.54 ± 0.31 |
| CGUCAGCAAUAUUACGUACU | -0.663 ± 0.1 | -0.361 ± 0.12 |
| CGUCAGCAAUAUUACGUAGA | -1.3 ± 0.069 | -0.865 ± 0.1 |
| CGUCAGCAAUAUUACGUAGC | -2.81 ± 0.12 | -2.29 ± 0.14 |
| CGUCAGCAAUAUUACGUCGC | -3.45 ± 0.34 | -1.88 ± 0.36 |
| CGUCAGCAAUAUUACGUGGU | -3.59 ± 0.12 | -2.5 ± 0.13 |
| CGUCAGCAAUAUUACGUUAG | -0.494 ± 0.065 | -0.365 ± 0.094 |
| CGUCAGCAAUAUUACGUUGU | -3.9 ± 0.23 | -2.12 ± 0.18 |
| CGUGAGCAAUAUUACGAAUC | -2.66 ± 0.2 | -2.34 ± 0.28 |
| CGUGAGCAAUAUUACGAGAU | -3.4 ± 0.26 | -1.57 ± 0.24 |
| CGUGAGCAAUAUUACGAUAA | -4.37 ± 0.39 | -2.68 ± 0.23 |
| CGUGAGCAAUAUUACGCGAC | -2.65 ± 0.35 | -2.21 ± 0.36 |
| CGUGAGCAAUAUUACGCGCC | -2.85 ± 0.36 | -1.95 ± 0.28 |
| CGUGAGCAAUAUUACGCGCU |  | -1.8 ± 0.36 |
| CGUGAGCAAUAUUACGCGGU | -3.83 ± 0.34 | -2.06 ± 0.32 |

| Sequence | self-splicing fitness (ln) (30 °C) | self-splicing fitness (ln) (37 °C) |
| --- | --- | --- |
| CGUGAGCAAUAUUACGCUAC |  | -0.816 ± 0.38 |
| CGUGAGCAAUAUUACGCUAG | -2.9 ± 0.12 | -1.47 ± 0.21 |
| CGUGAGCAAUAUUACGCUGC | -2.64 ± 0.32 |  |
| CGUGAGCAAUAUUACGGACU | -1.09 ± 0.14 | -0.345 ± 0.23 |
| CGUGAGCAAUAUUACGGAUC | -4.24 ± 0.33 | -1.88 ± 0.25 |
| CGUGAGCAAUAUUACGUAAU | -3.22 ± 0.26 | -2.19 ± 0.25 |
| CGUGAGCAAUAUUACGUAUC | -1.84 ± 0.16 | -2.42 ± 0.27 |
| CGUGAGCAAUAUUACGUCUG | -0.656 ± 0.072 | 0.0039 ± 0.094 |
| CGUGAGCAAUAUUACGUGCU | -3.78 ± 0.29 | -2.97 ± 0.34 |
| CGUGAGCAAUAUUACGUUUA | -3.08 ± 0.39 |  |
| CGUUAGCAAUAUUACGAAAC |  | -1.84 ± 0.37 |
| CGUUAGCAAUAUUACGAAAU | -3.82 ± 0.35 | -2.2 ± 0.28 |
| CGUUAGCAAUAUUACGAAUG | -1.92 ± 0.15 | 0.491 ± 0.12 |
| CGUUAGCAAUAUUACGAAUU |  | -2.39 ± 0.33 |
| CGUUAGCAAUAUUACGACCG | -1.13 ± 0.14 | -0.193 ± 0.2 |
| CGUUAGCAAUAUUACGACUA | -1.12 ± 0.16 | 0.415 ± 0.14 |
| CGUUAGCAAUAUUACGACUU | -1.03 ± 0.12 | -0.0418 ± 0.17 |
| CGUUAGCAAUAUUACGCCCU | -1.26 ± 0.2 | -0.204 ± 0.19 |
| CGUUAGCAAUAUUACGCGAA | -3.36 ± 0.41 | -3.1 ± 0.43 |
| CGUUAGCAAUAUUACGCUCG | -1.41 ± 0.14 | -1.38 ± 0.18 |
| CGUUAGCAAUAUUACGCUUA | -3.67 ± 0.28 | -1.86 ± 0.25 |
| CGUUAGCAAUAUUACGGAAU |  | -2.07 ± 0.36 |
| CGUUAGCAAUAUUACGGAGG | -1.43 ± 0.12 | -1.01 ± 0.11 |
| CGUUAGCAAUAUUACGGCGG | -0.628 ± 0.1 | -0.396 ± 0.12 |
| CGUUAGCAAUAUUACGGGAC | -2.68 ± 0.34 | -3.7 ± 0.39 |
| CGUUAGCAAUAUUACGGUAU | -3.23 ± 0.22 | -2.2 ± 0.22 |

Reference: the supplement of paper PMC7877785
